Experiment in all cases: cytokine release
Experiment [1] concerns the target T1, NRAS Q61R (RAS Q61R; the filing also names KRAS and HRAS comprising this peptide) peptide on HLA-A*01:01 (human).
T1 peptide: ILDTAGREEY

The target in experiment [2] is T2, NRAS wild type (RAS wild type) peptide on HLA-A*01:01 (human).
T2 peptide: ILDTAGQEEY

Experiment [3] addresses T3, NRAS Q61K (RAS Q61K; the filing also names KRAS and HRAS comprising this peptide) peptide on HLA-A*01:01 (human).
T3 peptide: ILDTAGKEEY

B1: TCR2 (TCR, V domains shown)
Valpha: GESVGLHLPTLSVQEGDNSIINCAYSNSASDYFIWYKQESGKGPQFIIDIRSNMDKRQGQRVTVLLNKTVKHLSLQIAATQPGDSAVYFCAENIRLTGANNLFFGTGTRLTVIP
Vbeta: GAVVSQHPSWVICKSGTSVKIECRSLDFQATTMFWYRQFPKQSLMLMATSNEGSKATYEQGVEKDKFLINHASLTLSTLTVTSAHPEDSSFYICSARLLSYEQYFGPGTRLTVT
Turning to B1, the binding result is recorded as “recognises” in experiment [1] and “no recognition” in experiment [2].

B2: TCR1 (TCR, V domains shown)
Valpha: GQQLNQSPQSMFIQEGEDVSMNCTSSSIFNTWLWYKQEPGEGPVLLIALYKAGELTSNGRLTAQFGITRKDSFLNISASIPSDVGIYFCAGRDDAGNMLTFGGGTRLMVKP
Vbeta: GAVVSQHPSRVICKSGTSVKIECRSLDFQATTMFWYRQFPKKSLMLMATSNEGSKATYEQGVEKDKFLINHASLTLSTLTVTSAHPEDSSFYICSASVRMNTEAFFGQGTRLTVV
Regarding B2, the binding result in experiment [3] was “recognises”; in experiment [1] it was “recognises”; in experiment [2] it was “no recognition”.

(Values after patent publication US20240285759A1 (published 2024).)
